Laboratory results published in PMC3008712.

Experiments:
[1] = molecular target: T1, recombinant human γD-crystallin (human), P07320; test: reducing SDS-PAGE; 1 mg/ml HGDC in 5 mM sodium phosphate pH 7.0, UV-C irradiated (254 nm, 1,850 μW/cm^2) for 10-60 min; 15% gel, sample buffer with β-mercaptoethanol; band intensities by Image-J; details: remark: other sources report otherwise
T1 chain: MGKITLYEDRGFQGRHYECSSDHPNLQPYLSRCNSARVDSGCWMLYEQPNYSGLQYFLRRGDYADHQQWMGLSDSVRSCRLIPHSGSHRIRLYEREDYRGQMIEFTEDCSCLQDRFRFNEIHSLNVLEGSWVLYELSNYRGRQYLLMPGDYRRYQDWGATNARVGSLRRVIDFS

[2] = molecular target: T1, recombinant human γD-crystallin …; test: non-reducing SDS-PAGE; 1 mg/ml HGDC in 5 mM sodium phosphate pH 7.0, UV-C irradiated (254 nm, 1,850 μW/cm^2) for 10-60 min; 15% gel, sample buffer without β-mercaptoethanol; band intensities by Image-J; details: remark: other sources report otherwise

B1: recombinant human γD-crystallin, P07320 1-174 (natural protein)
chain: MGKITLYEDRGFQGRHYECSSDHPNLQPYLSRCNSARVDSGCWMLYEQPNYSGLQYFLRRGDYADHQQWMGLSDSVRSCRLIPHSGSHRIRLYEREDYRGQMIEFTEDCSCLQDRFRFNEIHSLNVLEGSWVLYELSNYRGRQYLLMPGDYRRYQDWGATNARVGSLRRVIDFS
HGDC polymerization (%) with β-ME, 10 min UV-C [1]: 6.66%
HGDC polymerization (%) with β-ME, 20 min UV-C [1]: 15%
HGDC polymerization (%) with β-ME, 30 min UV-C [1]: 25.4%
HGDC polymerization (%) with β-ME, 40 min UV-C [1]: 29.8%
HGDC polymerization (%) with β-ME, 50 min UV-C [1]: 30.1%
HGDC polymerization (%) with β-ME, 60 min UV-C [1]: 31.5%
HGDC polymerization (%) without β-ME, 10 min UV-C [2]: 7.31%
HGDC polymerization (%) without β-ME, 20 min UV-C [2]: 17.6%
HGDC polymerization (%) without β-ME, 30 min UV-C [2]: 30.6%
HGDC polymerization (%) without β-ME, 40 min UV-C [2]: 42%
HGDC polymerization (%) without β-ME, 50 min UV-C [2]: 51.3%
HGDC polymerization (%) without β-ME, 60 min UV-C [2]: 53.6%
